Starred links: 1 amine or outer side, 2 acyl side, 3 side chain; linkers in the order of their positions; H or OH if unused. Positions of bridges follow the written chain, without caps; N, C: chain ends. Non-standard residues stand in square brackets, D forms with d. Groups on a side chain read outwards from the residue. No end group written: not given here. *: point of attachment. A4pipaa = 4-amino-1-(carboxymethyl)piperidine-4-carboxylic acid, O=C(C1(N[*:1])CCN(CC(=O)[*:3])CC1)[*:2]; BiPh4pCO = 4-([1,1′-biphenyl]-4-yl)butanoic acid, O=C(CCCc1ccc(-c2ccccc2)cc1)*; Biph4pCO = 4-([1,1′-biphenyl]-4-yl)butanoic acid, O=C(CCCc1ccc(-c2ccccc2)cc1)*; X1 = 4‑(carboxymethyl)piperazine‑1‑carbonyl, O=C(O)CN1CCN(C(=O)*)CC1; Trp(1-CH2CO) = O=C([C@H](Cc1cn(CC(=O)[*:3])c2ccccc12)N[*:1])[*:2]; Trp(5-OMe) = COc1ccc2[nH]cc(C[C@H](N)C(=O)O)c2c1; Butanoyl(4-(4-I-phenyl)) = O=C(CCCc1ccc(I)cc1)*; Trp(5-OH) = N[C@@H](Cc1c[nH]c2ccc(O)cc12)C(=O)O; Phe(4-COOH) = N[C@@H](Cc1ccc(C(=O)O)cc1)C(=O)O; Trp(7-aza) = N[C@@H](Cc1c[nH]c2ncccc12)C(=O)O; Butanoyl(4-(4-MePh)) = Cc1ccc(CCCC(=O)*)cc1; C17 diacid = O=C(O)CCCCCCCCCCCCCCCC(=O)*; C16 diacid = O=C(O)CCCCCCCCCCCCCCC(=O)*; C15 diacid = O=C(O)CCCCCCCCCCCCCC(=O)*; C14 diacid = O=C(O)CCCCCCCCCCCCC(=O)*; Hexanoyl(6-Ph) = O=C(CCCCCc1ccccc1)*; Butanoyl(4-Ph) = O=C(CCCc1ccccc1)*; 4Pal = N[C@@H](Cc1ccncc1)C(=O)O; NMeK = CN[C@@H](CCCCN)C(=O)O; W5H = not defined here; AEEA = NCCOCCOCC(=O)O; Aib = CC(C)(N)C(=O)O
B1: GhR_PD_245 (peptide)
peptide: {CH2CO}-[Phe(4-COOH)]KVVSN[Trp(1-CH2CO)][Phe(4-COOH)]K[Trp(5-OH)][Aib]VCK([Glu-Glu-Butanoyl(4-(4-MePh))])-NH2
modifications: thioether N-13; lactam 2-7; not fully specified (residue 2)
B2: GhR_PD_270 (peptide)
peptide: {CH2CO}-[Phe(4-COOH)]KVVSN[Trp(1-CH2CO)][Phe(4-COOH)]K[Trp(5-OH)][Aib]VCK([Glu-Glu-C17 diacid])-NH2
modifications: thioether N-13; lactam 2-7; not fully specified (residue 2)
B3: GhR_PD_255 (peptide)
peptide: {CH2CO}-[Phe(4-COOH)][NMeK]([Glu-BiPh4pCO])VVSN[Trp(5-OMe)][Phe(4-COOH)]K[Trp(5-OH)][4‑amino‑1‑(carboxymethyl)piperidine‑4‑carboxylic acid]VC-NH2
modifications: thioether N-13
B4: GhR_PD_227 (peptide)
peptide: {CH2CO}-Y[MeK]([Glu-Glu-Butanoyl(4-(4-I-phenyl))])VVSN[Trp(5-OMe)][Phe(4-COOH)]K(X1)[Trp(5-OH)][Aib]VC-NH2
modifications: thioether N-13
B5: GhR_PD_217 (peptide)
peptide: {CH2CO}-[Phe(4-COOH)]KVVSN[Trp(1-CH2CO)][Phe(4-COOH)]K[Trp(5-OH)][Aib]VCK([Glu-Glu-Butanoyl(4-(4-I-phenyl))])-NH2
modifications: thioether N-13; lactam 2-7; not fully specified (residue 2)
B6: GhR_PD_271 (peptide)
peptide: {CH2CO}-[Phe(4-COOH)]KVVSN[Trp(1-CH2CO)][Phe(4-COOH)]K[Trp(5-OH)][Aib]VCK([AEEA-AEEA-Glu-Glu-C14 diacid])-NH2
modifications: thioether N-13; lactam 2-7; not fully specified (residue 2)
B7: GhR_PD_269 (peptide)
peptide: {CH2CO}-[Phe(4-COOH)]KVVSN[Trp(1-CH2CO)][Phe(4-COOH)]K[Trp(5-OH)][Aib]VCK([Glu-Glu-C15 diacid])-NH2
modifications: thioether N-13; lactam 2-7; not fully specified (residue 2)
B8: GhR_PD_248 (peptide)
peptide: {CH2CO}-[Phe(4-COOH)]KVVSN[Trp(1-CH2CO)][Phe(4-COOH)]K[Trp(5-OH)][Aib]VCGP[dS][dS][dS]K([Glu-Glu-Butanoyl(4-(4-I-phenyl))])-NH2
modifications: thioether N-13; lactam 2-7; not fully specified (residue 2)
B9: GhR_PD_253 (peptide)
peptide: {CH2CO}-[Phe(4-COOH)]KVVSN[Trp(1-CH2CO)][Phe(4-COOH)]K[Trp(5-OH)][Aib]VCK([Glu-Glu-Biph4pCO])-NH2
modifications: thioether N-13; lactam 2-7; not fully specified (residue 2)
B10: GhR_PD_274 (peptide)
peptide: {CH2CO}-[Phe(4-COOH)]KVVSN[Trp(1-CH2CO)][Phe(4-COOH)]K[Trp(5-OH)][Aib]VCK([AEEA-AEEA-Glu-Glu-C17 diacid])-NH2
modifications: thioether N-13; lactam 2-7; not fully specified (residue 2)
B11: GhR_PD_203 (peptide)
peptide: {CH2CO}-YKVVSN[Trp(7-aza)][Phe(4-COOH)]K[Trp(5-OH)][Aib]VC-NH2
modifications: thioether N-13; not fully specified (residue 2); also: albumin binder E-4IPhpCO, attachment site not given here
B12: GhR_PD_267 (peptide)
peptide: {CH2CO}-[Phe(4-COOH)]KVVSN[Trp(1-CH2CO)][Phe(4-COOH)]K[Trp(5-OH)][Aib]VCK([Glu-Glu-Ac])-NH2
modifications: thioether N-13; lactam 2-7; not fully specified (residue 2)
B13: GhR_PD_208 (peptide)
peptide: {CH2CO}-[Phe(4-COOH)]KVVSN[Trp(5-OMe)][Phe(4-COOH)]K[Trp(5-OH)][Aib]VC-NH2
modifications: thioether N-13; not fully specified (residue 2); also: albumin binder E-4IPhpCO, attachment site not given here
B14: GhR_PD_212 (peptide)
peptide: {CH2CO}-[Phe(4-COOH)]KVVSN[Trp(5-OMe)][Phe(4-COOH)]K[Trp(5-OH)][Aib]VC-NH2
modifications: thioether N-13; not fully specified (residue 2); also: albumin binder E-E-4IPhpCO, attachment site not given here
B15: GhR_PD_202 (peptide)
peptide: {CH2CO}-[4Pal]KVVSN[Trp(5-OMe)][Phe(4-COOH)]K[Trp(5-OH)][Aib]VC-NH2
modifications: thioether N-13; not fully specified (residue 2); also: albumin binder E-4IPhpCO, attachment site not given here
B16: GhR_PD_256 (peptide)
peptide: {CH2CO}-[Phe(4-COOH)][NMeK]([Glu-Hexanoyl(6-Ph)])VVSN[Trp(5-OMe)][Phe(4-COOH)]K[Trp(5-OH)][4‑amino‑1‑(carboxymethyl)piperidine‑4‑carboxylic acid]VC-NH2
modifications: thioether N-13
B17: GhR_PD_228 (peptide)
peptide: {CH2CO}-Y[MeK]([Glu-Glu-Butanoyl(4-(4-I-phenyl))])VVSN[Trp(5-OMe)][Phe(4-COOH)]K[Trp(5-OH)][A4pipaa]VC-NH2
modifications: thioether N-13
B18: GhR_PD_233 (peptide)
peptide: {CH2CO}-[F4COO][MeK]VVSN[W1aa][F4COO]K[W5H][Aib]VCK
modifications: thioether N-13; lactam 2-7; reading uncertain; also: albumin binder E-E-cC14COO on the side-chain amino group of the linker lysine, which lysine is not given here
B19: GhR_PD_204 (peptide)
peptide: {CH2CO}-[4Pal]KVVSN[Trp(7-aza)][Phe(4-COOH)]K[Trp(5-OH)][Aib]VC-NH2
modifications: thioether N-13; not fully specified (residue 2); also: albumin binder E-4IPhpCO, attachment site not given here
B20: GhR_PD_211 (peptide)
peptide: {CH2CO}-YKVVSN[Trp(5-OMe)][Phe(4-COOH)]K[Trp(5-OH)][Aib]VC-NH2
modifications: thioether N-13; not fully specified (residue 2); also: albumin binder E-E-4IPhpCO, attachment site not given here
B21: GhR_PD_272 (peptide)
peptide: {CH2CO}-[Phe(4-COOH)]KVVSN[Trp(1-CH2CO)][Phe(4-COOH)]K[Trp(5-OH)][Aib]VCK([AEEA-AEEA-Glu-Glu-C15 diacid])-NH2
modifications: thioether N-13; lactam 2-7; not fully specified (residue 2)
B22: GhR_PD_218 (peptide)
peptide: {CH2CO}-[Phe(4-COOH)]KVVSN[Trp(1-CH2CO)][Phe(4-COOH)]K[Trp(5-OH)][Aib]VCK([Glu-Glu-Butanoyl(4-Ph)])-NH2
modifications: thioether N-13; lactam 2-7; not fully specified (residue 2)
B23: GhR_PD_254 (peptide)
peptide: {CH2CO}-[Phe(4-COOH)]KVVSN[Trp(1-CH2CO)][Phe(4-COOH)]K[Trp(5-OH)][Aib]VCK([Glu-Glu-Hexanoyl(6-Ph)])-NH2
modifications: thioether N-13; lactam 2-7; not fully specified (residue 2)
B24: GhR_PD_247 (peptide)
peptide: {CH2CO}-[Phe(4-COOH)]KVVSN[Trp(1-CH2CO)][Phe(4-COOH)]K[Trp(5-OH)][Aib]VCK([Glu-Butanoyl(4-(4-I-phenyl))])-NH2
modifications: thioether N-13; lactam 2-7; not fully specified (residue 2)
B25: GhR_PD_224 (peptide)
peptide: {CH2CO}-[Phe(4-COOH)]KVVSN[Trp(5-OMe)][Phe(4-COOH)]K[Trp(5-OH)][A4pipaa]VC-NH2
modifications: thioether N-13; not fully specified (residue 2); also: albumin binder E-4IPhpCO, attachment site not given here
B26: GhR_PD_223 (peptide)
peptide: {CH2CO}-[Phe(4-COOH)]KVVSN[Trp(5-OMe)][Phe(4-COOH)]K(X1)[Trp(5-OH)][Aib]VC-NH2
modifications: thioether N-13; not fully specified (residue 2); also: albumin binder E-4IPhpCO, attachment site not given here
B27: GhR_PD_206 (peptide)
peptide: {CH2CO}-YKVVSN[Trp(5-OMe)]YK(X1)[Trp(5-OH)][Aib]VC-NH2
modifications: thioether N-13; not fully specified (residue 2); also: albumin binder E-4IPhpCO, attachment site not given here
B28: GhR_PD_273 (peptide)
peptide: {CH2CO}-[Phe(4-COOH)]KVVSN[Trp(1-CH2CO)][Phe(4-COOH)]K[Trp(5-OH)][Aib]VCK([AEEA-AEEA-Glu-Glu-C16 diacid])-NH2
modifications: thioether N-13; lactam 2-7; not fully specified (residue 2)

molecular target: Recombinant human GhR-Fc protein (R&D Systems) (human) (UniProt P10912); test: SPR, Biacore T200, single-cycle kinetics, GhR-Fc immobilised on CM5
Sequence (P10912 19-264 limits assumed): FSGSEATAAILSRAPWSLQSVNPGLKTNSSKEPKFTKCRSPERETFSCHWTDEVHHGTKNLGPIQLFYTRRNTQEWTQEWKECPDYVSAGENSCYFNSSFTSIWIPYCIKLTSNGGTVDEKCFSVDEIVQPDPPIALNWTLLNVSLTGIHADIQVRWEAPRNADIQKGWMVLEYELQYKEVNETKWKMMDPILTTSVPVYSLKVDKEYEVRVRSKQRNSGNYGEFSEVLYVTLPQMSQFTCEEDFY

Binder	Kd [nM]
B1	1.95
B2	2.53
B3	5.81
B4	7.38
B5	1.46
B6	3.88
B7	3.1
B8	1.88
B9	1.61
B10	3.33
B11	3.95
B12	3.51
B13	2.19
B14	2.96
B15	2.77
B16	2.82
B17	4.13
B18	2.85
B19	9.43
B20	3.36
B21	3.7
B22	2.03
B23	1.93
B24	1.36
B25	10.8
B26	5.47
B27	9.67
B28	3.61

Source: patent publication US20250332264A1, “GhR-BINDING PEPTIDE AND COMPOSITION COMPRISING SAME” (priority 2021, published 2025)
